Columns and labels:
[1] = biological target: the molecule itself; assay: native gel or EMSA
[2] = biological target: the molecule itself; assay: native gel or EMSA; remark: listed apart in the source

Row | Protein | KX (trimer association constant, mole fraction) [1] | stoichiometry N [2]
1 | wild-type AcrB (natural protein, Escherichia coli) MPNFFIDRPIFAWVIAIIIMLAGGLAILKLPVAQYPTIAPPAVTISASYPGADAKTVQDTVTQVIEQNMNGIDNLMYMSSNSDSTGTVQITLTFESGTDADIAQVQVQNKLQLAMPLLPQEVQQQGVSVEKSSSSFLMVVGVINTDGTMTQEDISDYVAANMKDAISRTSGVGDVQLFGSQYAMRIWMNPNELNKFQLTPVDVITAIKAQNAQVAAGQLGGTPPVKGQQLNASIIAQTRLTSTEEFGKILLKVNQDGSRVLLRDVAKIELGGENYDIIAEFNGQPASGLGIKLATGANALDTAAAIRAELAKMEPFFPSGLKIVYPYDTTPFVKISIHEVVKTLVEAIILVFLVMYLFLQNFRATLIPTIAVPVVLLGTFAVLAAFGFSINTLTMFGMVLAIGLLVDDAIVVVENVERVMAEEGLPPKEATRKSMGQIQGALVGIAMVLSAVFVPMAFFGGSTGAIYRQFSITIVSAMALSVLVALILTPALCATMLKPIAKGDHGEGKKGFFGWFNRMFEKSTHHYTDSVGGILRSTGRYLVLYLIIVVGMAYLFVRLPSSFLPDEDQGVFMTMVQLPAGATQERTQKVLNEVTHYYLTKEKNNVESVFAVNGFGFAGRGQNTGIAFVSLKDWADRPGEENKVEAITMRATRAFSQIKDAMVFAFNLPAIVELGTATGFDFELIDQAGLGHEKLTQARNQLLAEAAKHPDMLTSVRPNGLEDTPQFKIDIDQEKAQALGVSINDINTTLGAAWGGSYVNDFIDRGRVKKVYVMSEAKYRMLPDDIGDWYVRAADGQMVPFSAFSSSRWEYGSPRLERYNGLPSMEILGQAAPGKSTGEAMELMEQLASKLPTGVGYDWTGMSYQERLSGNQAPSLYAISLIVVFLCLAALYESWSIPFSVMLVVPLGVIGALLAATFRGLTNDVYFQVGLLTTIGLSAKNAILIVEFAKDLMDKEGKGLIEATLDAVRMRLRPILMTSLAFILGVMPLVISTGAGSGAQNAVGTGVMGGMVTATVLAIFFVPVFFVVVRRRFSRKNEDIEHSHTVDHH | 1.6e+09 | –
2 | AcrB_(L886G) (natural protein, Escherichia coli) MPNFFIDRPIFAWVIAIIIMLAGGLAILKLPVAQYPTIAPPAVTISASYPGADAKTVQDTVTQVIEQNMNGIDNLMYMSSNSDSTGTVQITLTFESGTDADIAQVQVQNKLQLAMPLLPQEVQQQGVSVEKSSSSFLMVVGVINTDGTMTQEDISDYVAANMKDAISRTSGVGDVQLFGSQYAMRIWMNPNELNKFQLTPVDVITAIKAQNAQVAAGQLGGTPPVKGQQLNASIIAQTRLTSTEEFGKILLKVNQDGSRVLLRDVAKIELGGENYDIIAEFNGQPASGLGIKLATGANALDTAAAIRAELAKMEPFFPSGLKIVYPYDTTPFVKISIHEVVKTLVEAIILVFLVMYLFLQNFRATLIPTIAVPVVLLGTFAVLAAFGFSINTLTMFGMVLAIGLLVDDAIVVVENVERVMAEEGLPPKEATRKSMGQIQGALVGIAMVLSAVFVPMAFFGGSTGAIYRQFSITIVSAMALSVLVALILTPALCATMLKPIAKGDHGEGKKGFFGWFNRMFEKSTHHYTDSVGGILRSTGRYLVLYLIIVVGMAYLFVRLPSSFLPDEDQGVFMTMVQLPAGATQERTQKVLNEVTHYYLTKEKNNVESVFAVNGFGFAGRGQNTGIAFVSLKDWADRPGEENKVEAITMRATRAFSQIKDAMVFAFNLPAIVELGTATGFDFELIDQAGLGHEKLTQARNQLLAEAAKHPDMLTSVRPNGLEDTPQFKIDIDQEKAQALGVSINDINTTLGAAWGGSYVNDFIDRGRVKKVYVMSEAKYRMLPDDIGDWYVRAADGQMVPFSAFSSSRWEYGSPRLERYNGLPSMEILGQAAPGKSTGEAMELMEQLASKLPTGVGYDWTGMSYQERLSGNQAPSLYAISLIVVFGCLAALYESWSIPFSVMLVVPLGVIGALLAATFRGLTNDVYFQVGLLTTIGLSAKNAILIVEFAKDLMDKEGKGLIEATLDAVRMRLRPILMTSLAFILGVMPLVISTGAGSGAQNAVGTGVMGGMVTATVLAIFFVPVFFVVVRRRFSRKNEDIEHSHTVDHH | 1.4e+07 | 3
3 | AcrB_(W895G) (natural protein, Escherichia coli) MPNFFIDRPIFAWVIAIIIMLAGGLAILKLPVAQYPTIAPPAVTISASYPGADAKTVQDTVTQVIEQNMNGIDNLMYMSSNSDSTGTVQITLTFESGTDADIAQVQVQNKLQLAMPLLPQEVQQQGVSVEKSSSSFLMVVGVINTDGTMTQEDISDYVAANMKDAISRTSGVGDVQLFGSQYAMRIWMNPNELNKFQLTPVDVITAIKAQNAQVAAGQLGGTPPVKGQQLNASIIAQTRLTSTEEFGKILLKVNQDGSRVLLRDVAKIELGGENYDIIAEFNGQPASGLGIKLATGANALDTAAAIRAELAKMEPFFPSGLKIVYPYDTTPFVKISIHEVVKTLVEAIILVFLVMYLFLQNFRATLIPTIAVPVVLLGTFAVLAAFGFSINTLTMFGMVLAIGLLVDDAIVVVENVERVMAEEGLPPKEATRKSMGQIQGALVGIAMVLSAVFVPMAFFGGSTGAIYRQFSITIVSAMALSVLVALILTPALCATMLKPIAKGDHGEGKKGFFGWFNRMFEKSTHHYTDSVGGILRSTGRYLVLYLIIVVGMAYLFVRLPSSFLPDEDQGVFMTMVQLPAGATQERTQKVLNEVTHYYLTKEKNNVESVFAVNGFGFAGRGQNTGIAFVSLKDWADRPGEENKVEAITMRATRAFSQIKDAMVFAFNLPAIVELGTATGFDFELIDQAGLGHEKLTQARNQLLAEAAKHPDMLTSVRPNGLEDTPQFKIDIDQEKAQALGVSINDINTTLGAAWGGSYVNDFIDRGRVKKVYVMSEAKYRMLPDDIGDWYVRAADGQMVPFSAFSSSRWEYGSPRLERYNGLPSMEILGQAAPGKSTGEAMELMEQLASKLPTGVGYDWTGMSYQERLSGNQAPSLYAISLIVVFLCLAALYESGSIPFSVMLVVPLGVIGALLAATFRGLTNDVYFQVGLLTTIGLSAKNAILIVEFAKDLMDKEGKGLIEATLDAVRMRLRPILMTSLAFILGVMPLVISTGAGSGAQNAVGTGVMGGMVTATVLAIFFVPVFFVVVRRRFSRKNEDIEHSHTVDHH | 2.2e+07 | 3
4 | AcrB_(E893G/W895G) (natural protein, Escherichia coli) MPNFFIDRPIFAWVIAIIIMLAGGLAILKLPVAQYPTIAPPAVTISASYPGADAKTVQDTVTQVIEQNMNGIDNLMYMSSNSDSTGTVQITLTFESGTDADIAQVQVQNKLQLAMPLLPQEVQQQGVSVEKSSSSFLMVVGVINTDGTMTQEDISDYVAANMKDAISRTSGVGDVQLFGSQYAMRIWMNPNELNKFQLTPVDVITAIKAQNAQVAAGQLGGTPPVKGQQLNASIIAQTRLTSTEEFGKILLKVNQDGSRVLLRDVAKIELGGENYDIIAEFNGQPASGLGIKLATGANALDTAAAIRAELAKMEPFFPSGLKIVYPYDTTPFVKISIHEVVKTLVEAIILVFLVMYLFLQNFRATLIPTIAVPVVLLGTFAVLAAFGFSINTLTMFGMVLAIGLLVDDAIVVVENVERVMAEEGLPPKEATRKSMGQIQGALVGIAMVLSAVFVPMAFFGGSTGAIYRQFSITIVSAMALSVLVALILTPALCATMLKPIAKGDHGEGKKGFFGWFNRMFEKSTHHYTDSVGGILRSTGRYLVLYLIIVVGMAYLFVRLPSSFLPDEDQGVFMTMVQLPAGATQERTQKVLNEVTHYYLTKEKNNVESVFAVNGFGFAGRGQNTGIAFVSLKDWADRPGEENKVEAITMRATRAFSQIKDAMVFAFNLPAIVELGTATGFDFELIDQAGLGHEKLTQARNQLLAEAAKHPDMLTSVRPNGLEDTPQFKIDIDQEKAQALGVSINDINTTLGAAWGGSYVNDFIDRGRVKKVYVMSEAKYRMLPDDIGDWYVRAADGQMVPFSAFSSSRWEYGSPRLERYNGLPSMEILGQAAPGKSTGEAMELMEQLASKLPTGVGYDWTGMSYQERLSGNQAPSLYAISLIVVFLCLAALYGSGSIPFSVMLVVPLGVIGALLAATFRGLTNDVYFQVGLLTTIGLSAKNAILIVEFAKDLMDKEGKGLIEATLDAVRMRLRPILMTSLAFILGVMPLVISTGAGSGAQNAVGTGVMGGMVTATVLAIFFVPVFFVVVRRRFSRKNEDIEHSHTVDHH | 8.6e+06 | 3
5 | AcrB_(L886G/E893G) (natural protein, Escherichia coli) MPNFFIDRPIFAWVIAIIIMLAGGLAILKLPVAQYPTIAPPAVTISASYPGADAKTVQDTVTQVIEQNMNGIDNLMYMSSNSDSTGTVQITLTFESGTDADIAQVQVQNKLQLAMPLLPQEVQQQGVSVEKSSSSFLMVVGVINTDGTMTQEDISDYVAANMKDAISRTSGVGDVQLFGSQYAMRIWMNPNELNKFQLTPVDVITAIKAQNAQVAAGQLGGTPPVKGQQLNASIIAQTRLTSTEEFGKILLKVNQDGSRVLLRDVAKIELGGENYDIIAEFNGQPASGLGIKLATGANALDTAAAIRAELAKMEPFFPSGLKIVYPYDTTPFVKISIHEVVKTLVEAIILVFLVMYLFLQNFRATLIPTIAVPVVLLGTFAVLAAFGFSINTLTMFGMVLAIGLLVDDAIVVVENVERVMAEEGLPPKEATRKSMGQIQGALVGIAMVLSAVFVPMAFFGGSTGAIYRQFSITIVSAMALSVLVALILTPALCATMLKPIAKGDHGEGKKGFFGWFNRMFEKSTHHYTDSVGGILRSTGRYLVLYLIIVVGMAYLFVRLPSSFLPDEDQGVFMTMVQLPAGATQERTQKVLNEVTHYYLTKEKNNVESVFAVNGFGFAGRGQNTGIAFVSLKDWADRPGEENKVEAITMRATRAFSQIKDAMVFAFNLPAIVELGTATGFDFELIDQAGLGHEKLTQARNQLLAEAAKHPDMLTSVRPNGLEDTPQFKIDIDQEKAQALGVSINDINTTLGAAWGGSYVNDFIDRGRVKKVYVMSEAKYRMLPDDIGDWYVRAADGQMVPFSAFSSSRWEYGSPRLERYNGLPSMEILGQAAPGKSTGEAMELMEQLASKLPTGVGYDWTGMSYQERLSGNQAPSLYAISLIVVFGCLAALYGSWSIPFSVMLVVPLGVIGALLAATFRGLTNDVYFQVGLLTTIGLSAKNAILIVEFAKDLMDKEGKGLIEATLDAVRMRLRPILMTSLAFILGVMPLVISTGAGSGAQNAVGTGVMGGMVTATVLAIFFVPVFFVVVRRRFSRKNEDIEHSHTVDHH | 1e+07 | 3
